Test results: PMC7480081

Target: T1, Csa3b (Sulfolobus islandicus REY15A) (UniProt F0NH47)
T1 sequence: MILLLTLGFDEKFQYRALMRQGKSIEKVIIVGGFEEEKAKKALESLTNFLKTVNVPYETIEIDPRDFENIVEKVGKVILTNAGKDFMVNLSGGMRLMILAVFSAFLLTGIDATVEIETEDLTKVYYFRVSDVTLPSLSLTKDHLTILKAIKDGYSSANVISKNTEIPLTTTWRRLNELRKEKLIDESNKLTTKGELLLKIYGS
Experiment: LSPR
Conditions: DNA immobilized, LSPR (OpenSPR, COOH chip, 20 uL/min, 5 min, 1:1 fit; running buffer not stated), DNase I footprinting: 400 ng probe in 40 uL, 30 min at 30 C, DNase I 1 min at …

Substance	Kd [nM]	Kd (20 uM 5'-CAAAA-3') [nM]	Kd (no CAAAA) [nM]
cmr4 (cmr4-alpha) promoter (LSPR)	17.2		
csa1 promoter, full-length (LSPR)		300	4240
